For test [1], the target named is SCRM KiDoK peptide (Arabidopsis). Nature of the test: ITC; as a3, but MPK6ΔNt (29–305) pre-incubated with the small molecule kC9. On the technique in general: In ITC the heat of successive injections is recorded.
Test [2] shares this target. Nature of the test: ITC; Malvern PEAQ-ITC, 25 °C, PBS pH 7.4 with 2% DMSO; SCRM KiDoK peptide with MPK6ΔNt (29–305); without kC9.
Test [3] shares this target. The experiment in a line: BLI; as a1, but MPK6 pre-incubated with the small molecule kC9 (MPK6:kC9 1:1.5 in the methods, 1:2 in the legend) as analyte. (BLI is a label-free optical method that tracks binding on a fibre tip over time.)
Test [4] shares this target. Nature of the test: BLI; Octet Red96; biotinylated SCRM KiDoK peptide (500 nM) loaded on streptavidin probes, MPK6 as analyte (150 nM and two-fold dilutions); 25 °C; 1x PBS, 2 % DMSO, 0.02 % Tween20, 0.1 % BSA; 1:1 model, Kd from steady-state analysis; without kC9.

Sequence of MPK6ΔNt (29–305) (Q39026 29-305, stated change not applied): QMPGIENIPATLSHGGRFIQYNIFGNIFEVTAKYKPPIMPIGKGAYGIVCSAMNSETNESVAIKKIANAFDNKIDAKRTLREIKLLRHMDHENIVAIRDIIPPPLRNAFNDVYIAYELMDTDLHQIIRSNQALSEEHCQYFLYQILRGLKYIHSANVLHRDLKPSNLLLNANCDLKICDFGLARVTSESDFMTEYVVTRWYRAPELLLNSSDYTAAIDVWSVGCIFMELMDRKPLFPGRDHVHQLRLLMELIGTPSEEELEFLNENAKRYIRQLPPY

What is called Kd is a measure of binding affinity in units of concentration. Consider “MPK6ΔNt (29–305) (from UniProt Q39026 29-305) (domain or fragment)”, for which the Kd in test [1] was 1400 nM; in test [2], 43.4 nM; in test [3], 856 nM; in test [4], 40.1 nM.

These data come from publication doi:10.1101/2024.07.29.605519.
